PMC8629902, “Structure–function relationships explain CTCF zinc finger mutation phenotypes in cancer”

Biological target: T1, CTCF WT (UniProt P49711 1-727)
T1 sequence: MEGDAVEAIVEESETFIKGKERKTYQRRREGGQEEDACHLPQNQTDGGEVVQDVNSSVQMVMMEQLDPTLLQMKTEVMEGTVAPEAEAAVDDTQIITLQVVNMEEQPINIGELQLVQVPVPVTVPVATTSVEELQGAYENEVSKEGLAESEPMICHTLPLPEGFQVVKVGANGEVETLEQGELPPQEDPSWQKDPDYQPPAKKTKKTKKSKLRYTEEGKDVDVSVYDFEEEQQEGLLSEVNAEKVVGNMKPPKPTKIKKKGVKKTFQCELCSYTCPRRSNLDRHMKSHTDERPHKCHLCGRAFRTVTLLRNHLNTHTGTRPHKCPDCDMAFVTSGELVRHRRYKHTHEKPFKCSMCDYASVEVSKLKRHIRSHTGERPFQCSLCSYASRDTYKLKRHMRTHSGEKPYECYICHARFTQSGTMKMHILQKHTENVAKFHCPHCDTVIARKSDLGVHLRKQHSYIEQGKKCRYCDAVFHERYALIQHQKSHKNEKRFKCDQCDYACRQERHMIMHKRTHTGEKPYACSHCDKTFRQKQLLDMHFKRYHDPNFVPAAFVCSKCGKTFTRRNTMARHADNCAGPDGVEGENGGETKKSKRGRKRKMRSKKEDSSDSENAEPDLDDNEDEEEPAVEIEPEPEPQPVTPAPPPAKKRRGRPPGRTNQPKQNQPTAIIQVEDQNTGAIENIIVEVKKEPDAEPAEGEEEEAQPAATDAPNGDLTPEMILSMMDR
Test: pull-down; TnT lysate protein with bead-bound DNA, 3 h at 4 C; beads washed before and after binding in PIB (250 mM NaCl, 50 mM Tris pH 8.0, 0.25% IGEPAL, EDTA-free protease inhibitor); anti-CTCF Western blot
Conditions: protein: ivt; tags: FLAG (pcDNA3.1-FLAG); label: 5' biotin on S3 strand; blunt

B1: core CTCF binding site probe (dsDNA)
DNA 1: AGGACCAGCAGGGGGCGCA
DNA 2: TGCGCCCCCTGCTGGTCCT
binding result: binds
